Assay results reported in the nanobody polyreactivity screen of Harvey et al. (2022).

Test: yeast display, Sf9 membrane polyspecificity reagent, FACS + sequencing; frameworks hold sequencing errors
Summary of the method: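 Galactose induction of a Saccharomyces cerevisiae BJ5465 synthetic nanobody display library ran 36–48 hours. The cells were then stained for 1 hour at 4 °C with 10% biotinylated, detergent-solubilized Sf9 membrane reagent, pulled down on streptavidin microbeads and FACS-sorted into low and high (top ~1%) gates on expression and reagent-binding fluorescence. Labels for polyreactivity follow the gate of origin.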

Sequence | polyreactivity (PSR sort gate)
QVQLVESGGGLVQAGGSLLLSCAASGFTFSVYAMGWYRQEPGKERELVAAINFSGGNTFYADSVKGRFTISRDYAKNTVYLQMNSLKPEDSAVYYCAAEDYKITRYVVRWYEYWGQGTQVTVSS | high polyreactivity
QVQLVESGGGLVQAGGSLLLSCAASGFTFWSYAMAWYRQAPRKERELVADISWSGGSTHYADSVKGRFTISRDNAKNTVYLQMNSLKPEDTAVYYCARRFLYPYDHWGQGTQVTVSS | high polyreactivity
QVQLVESGGGLVQAGGSLLLSCAASGGTLRYYAMGWYRQAPGKEREFVASISRSGGSTYYADSVKGRFTISRDNAKNTVYLQMNSLKPEDTAVYYCAAYWSPGYTTRRGYWGQGTQVTVSS | high polyreactivity
QVQLVESGGGLVQAGGSLLLSCAASGITFYGNAKGWDRQAPGKERELVAAITFSGGITYYADSVKGRFTISRDNAKNTVYLQMNRLKPEDTAVYYCATDPIGGWTRPQRYGDDYWGQGTQLTVSS | low polyreactivity
QVQLVESGGGLVQAGGSLLLSCAASGLTFYLYAMGWYRQAPGKERELVAPISRRGGSTYYADSVKGRFTISRDNAKNTVYFQMKSLKPEYTAVYYCAGAFYSQTDYKFYYWGQGTQVTVSS | high polyreactivity
QVQLVESGGGLVQAGGSLLLSCAASGRIFRWNAMGWYRQAPGKERELVAAIRSRGGSTYYADSVKGRFTISRDNAKNTVYLQMNSLKPEDSAVYYCNARIASYRSIYDYWGQGTQVTVSS | high polyreactivity
QVQLVESGGGLVQAGGSLLLSCAASGRTFGYYAMGWYRQAPGKETELVAAISSGGGTYYADSVKGRFTISRDNAKNTVYLQMNSLKPEDTAVYYCAATGWVYWGQFDYWGQGTQVTVSS | low polyreactivity
QVQLVESGGGLVQAGGSLLLSCAASGRTILTYALGWNRQAPGKERDLVAAISKRGGSTYYADSVKGRFTISRDNAKNTVYLQRNSLKPEDTAVYYCAADNVNHYGYWGQGTQVTVSS | high polyreactivity
QVQLVESGGGLVQAGGSLLLSCAASGRTLFVYDMGWYRQAPGKERELVAAITWGVGSTYYADSVKGRFTISRDNAKNTVYLQLNSLKPEDTAVYYCNAVAIRYYRWYYYWGQGTQVTVSS | high polyreactivity
QVQLVESGGGLVQAGGSLLLSCAASGRTSAYYAMGWYRQAPGKERELDAGITRGGRTNDADSVKWRFTISRDNAKYTDYFQMNSLNPEDTAVYYCAAKYGFYWNSRTSGYWGQVTQVTVSS | high polyreactivity
QVQLVESGGGLVQAGGSLLLSCAASGSIFDAYAMGWYRQSRGKERELVAAITSGGSTYYADSVKGRFTISRDNAKNNVYLQMNSLKPEDTAVYYCAAQYYDYKTTYDYWGQGTQVTVSS | high polyreactivity
QVQLVESGGGLVQAGGSLLLSCAASGSIFGKNAMGWYRQAPGKERELVAAISRSGARTYYADSVKGRFTISRDNAKNTVYLQMNSLKPEDTAVYDCAAVYWWAYRGTYSSLYKHFVYWGQGSQVTVSS | high polyreactivity
QVQLVESGGGLVQAGGSLLLSCAASGSIFITYAMGWYRLAPGKERELVAAIRDSGDRTYYADSVKGRFTISRDNAKNTVYLQMNSLKPEDTAVYDCNARWQEPLKYDYWGQGTQVTVSS | low polyreactivity
QVQLVESGGGLVQAGGSLLLSCAASGSIFPYYAMGMYRQAPGKERELVAAITDGGSTNYADSVKGRFTISRDNAKNTFYLQMNSLKQEDTAVYYCNKLPGYYDYDYWGQGTQVTVSS | low polyreactivity
QVQLVESGGGLVQAGGSLLLSCAASGSIFYSNAMGWYRKAPGKERELVAAIRRSGGSTYYADSVKGRFTISRDNAKYTVYLQMNSLKPEDTAVYYCATTRRVPGEYWGQGTQVTVSS | high polyreactivity
QVQLVESGGGLVQAGGSLLLSCAASGSTFDDKAMGWYRQAPGKERELVAAISSDGSTNYADSVKGRFTISRDTAKNTVYLQMNCLKPADTAVYYCAAESPWDWGSWFEALYDYWGLGTQVTVSS | high polyreactivity
QVQLVESGGGLVQAGGSLLLSCAASGSTFDWYVMGWYRPAPGKERELVAAINQGSGSTYYADSVKGRFTISRDNAKNTVYLQMNSLKPEDTAVYYCAADRYGAGYLYWPYDYWGQGTQVTVSS | low polyreactivity
QVQLVESGGGLVQAGGSLLLSCAAYGSTFWYNAMGWYRQAHGKESELVAAITWTGSRTYYADSVKGRFTISRDNAKNTVYLQMNSLKPEDTAVYYCNRTRSFTRYDVFYGTIPAFDYWGQGTQVTVSS | high polyreactivity
QVQLVESGGGLVQAGGSLLLSCSASVLIFYDNDMGWYRQAPGKERVFVAAITSLGGSTYYADSVKGRFTISRDNAKNTVYLQMNSLKPEDTAVYYCNVKSKYYSPNYDYWGQVTQVTVSS | low polyreactivity
QVQLVESGGGLVQAGGSLLLTCAASGITFGLYAMGWYREAPGKERELVAAIFSGGITYYADSVKGRFTISRDNAKNTVYLQMNSRKPVDTAVYYCAAYKYSYKYYYWGQGTQVTVSS | low polyreactivity
QVQLVESGGGLVQAGGSLPLSCAASGFNFRSYAMGWYRQAPGTERELVAAISSGGSTYYADSVKGRFTISRDNAKNTVYLQMNSLKPEDTAVYYCGASRYYGYGHWGQGTQVTVSS | high polyreactivity
QVQLVESGGGLVQAGGSLPLSCAASGRIFNQYGMVWYRQAPGKERELVAAIRSGDSTNYADSVKGRFTISRDNAMNTVYLQMKSLKPEDPAVYYCARDRPGDYAGYDYWGQGTQVTVSS | low polyreactivity

Sequence | polyreactivity (PSR sort gate)
QVQLVESGGGLVQAGGSLPLSCAASGRIFNYYAMGWYRQAPGKERDFVATISTSGGSTYYADSVKARFTISRDNAKNTVYLQMISLKPEDTAVYYCAARRYYSLRTFLYWFSKYDYWGQGTQVTVSS | high polyreactivity
QVQLVESGGGLVQAGGSLPLSCAASGRIFRGYAMGWYRQAPGKERELVAAISRTGGSTYYADSVKGRFTISRDNAKNTVYLQMNSLKPEDTEVYYCNANRFRRYDWGQGTLVTVSS | high polyreactivity
QVQLVESGGGLVQAGGSLPLSCAASGRIFYFNAMGWYRPAPGKEREFVASINSIGDSTYYADSVKGRFTISRDNAKKTVYLQMHSLKPEDTAVYYCNADHGVINYRLDYWGQGTQVTVSS | low polyreactivity
QVQLVESGGGLVQAGGSLPLSCAASGRTFRRYAMGWYRQAPGKETELVAAISWGAGSTRYADSVKGRFTISRDNAKNTVYLQLNSLKPEDTAVYYCAAENTRAYGMYYWGQGTQVTVSS | high polyreactivity
QVQLVESGGGLVQAGGSLPLSCAASGSIFDLYTMGWYRQAPGKEREMVASISSSGGSTYYADSVKGRFTISRDNAKNTVYLQMNSLKPEDTAVYYCAAVASYHAYQYYYWGQGTQVTVSS | high polyreactivity
QVQLVESGGGLVQAGGSLPLSCAASGSIFGTYAMGWYRQAPGKERELVAAITTSAGSTYYADSVKGRFTISRDNAKNTVYLQMKSLKPEDTAVYYCAARFRRGITYEYWGQGTQVTVSS | high polyreactivity
QVQLVESGGGLVQAGGSLPLSCAASGSNFWRNALGWYRQAPGKERELVAAISGSGGSTYYADSVKGRFTISRDNAKNTVYLQMNSLKPEDTAVYYSYVSRMDYWGQGTQVTVSS | high polyreactivity
QVQLVESGGGLVQAGGSLPLSSAAYGSIFYYNAMGWYRQAPGKERELVAAISYSGDSTSYADSVKGRFTISRDNAKNYVFLQMYRLKPEDTAVFYCAAEQDYEDFYEDYYWGQGTQVTVSS | high polyreactivity
QVQLVESGGGLVQAGGSLPLTCAASGRIFGVYAMGWYRQAPGKERELVASISWSGSSTYYADSVKGRFTISRDNEKNTVYLQMNSLKPEDTAVYYCAADANHYRYGGGYWGQGTQVTVSS | low polyreactivity
QVQLVESGGGLVQAGGSLRFNCSASGSIFVRYTIGWYRQAPGKERELVAAISWGGGSTYYADSVKGRFTISRDNANNTVYLQMNSLKPEDTAVYYCNKRYIQLYDYWGQGTQVTVSS | low polyreactivity
QVQLVESGGGLVQAGGSLRFSCAASGFIFRRYTMGWYRQAPGKERELVAAISITGSRTYYADSVKGRFTISRDNAKNTVYLQMNSLKPEDTAVYYCAARVWYAPKTLFGYDFDYWGQGTQVTVSS | high polyreactivity
QVQLVESGGGLVQAGGSLRFSCAASGFIFTLYAMGWYRQAPGKERELVASIRGSGGNTYYADSVKGRFTISRDNEKNTVYLQMNSLKPEDTAVYYCAARTYRRPYYSWGQGTQVTVSS | high polyreactivity
QVQLVESGGGLVQAGGSLRFSCAASGFTFSYYAMGCYRQAPGKERELVAAISWSGGSTYYADSVKGRFTISRDTAKNTVYLQMNSLKPEDTAVYYCAAYLFYSSRSSYYGYDYWGQGTQVTVSS | high polyreactivity
QVQLVESGGGLVQAGGSLRFSCAASGGIFFRNAMVWYRQAPGKEREFVAVISSGGSTYYADSVKGRFTISRDNAKNTVYLQMNSLKPEDTAVYYCAARRKRPGYTVTLHYPYNYWGQGTQVTVSS | high polyreactivity
QVQLVESGGGLVQAGGSLRFSCAASGGIFRLYGMGWYREAPGKERELVAAIRQSGGRTYYADSVKGRFTISRDNAKNTVYLQMNSLKPEDTAVYYCAADLLYRSSGTVRSDYSRYDYWGQGTQVTVSS | low polyreactivity
QVQLVESGGGLVQAGGSLRFSCAASGIIFQRNDMGLYRQAPGKERELVANIRDGGITYADSVKGRFTLSRDNAKNTFYLQMNSLKPEDTAVYYCAADYHTPSSFAPIELYDYWGQGTQVTVSS | low polyreactivity
QVQLVESGGGLVQAGGSLRFSCAASGRIFGRYAMGWYRQAPGKERELVAAISSTGGSTYYADSVKGRFTISRDNANNTVYLQMNSLKPEDTAVYYCATVWYGRYYWATEYWGQGTQVTVSS | high polyreactivity
QVQLVESGGGLVQAGGSLRFSCAASGRPFPYYVMGWYRQAPGKERELVAAINSGGRTNYADSVKGRFTISRDNAKNTVYLQMNSLKPEDTAVYYCTKRGHPARLGYYYWGQGTQVNVSS | low polyreactivity
QVQLVESGGGLVQAGGSLRFSCAASGRTFPVYAMGWYRQAPGKEREFVAAISYRTGSTYYADSVKGRFTISRDNAKNTVYLQMNSLKPVDSAVYYCAADYRGSYWRYYYWGQGTQVTVSS | high polyreactivity
QVQLVESGGGLVQAGGSLRFSCAASGRTFTIYAMGWYRQAPGKERELVAAISWSEGSTYYADSVKGRFTISRDNAKNTVYLQMNSLKPEDTAVYYCAREVYGDASAPDMDYWGQGTQVTVSS | low polyreactivity
QVQLVESGGGLVQAGGSLRFSCAASGRTFWSNAMGWYRQAPGKERDFVAVISRAGSTTYYADSVKGRFTISRDNAKNTVYLQMNSLIPEETAVYYCAADRVRSYFSRYYSTPLDYYWGQGTQVTVSS | high polyreactivity
